Assay results from patent US8691772B2, “HSP60, HSP60 peptides and T cell vaccines for immunomodulation” (Yeda Research and Development Co. Ltd., priority 2005, dated 2014).

Legend:
NF-κB = test: Nuclear translocation of NF-κB in T cells; type: cell-based, human
Procedure: (§1) Western blot analysis of T-cell nuclear extracts. Purified T cells (5×10^6) were preincubated with different concentrations of HSP60 for the indicated periods of time (37° C. in a 7% CO2, humidified atmosphere). […] T cells were lysed in 10 mM HEPES, 1.5 mM MgCl2, 1 mM dithiothreitol (DTT), 1 mM PMSF, 0.5% Nonidet P-40. The lysates were incubated on ice for 10 min and centrifuged at 2000 rpm for 10 min at 4° C. The supernatants (cytoplasmic extracts) were transferred and the pellet (nuclei) was suspended in buffer containing 30 mM HEPES, 450 mM NaCl, 25% Glycerol, 0.5 mM EDTA, 6 mM DTT, 12 mM MgCl2 1 mM PMSF, 10 μg/ml leupeptin, 10 μg/ml pepstatin, 1% phosphatase inhibitor cocktail, and the suspension was incubated on ice for 30 min. The lysates were cleared by centrifugation (30 min, 14×10^3 rpm, 4° C.), and the resulting supernatants analyzed for protein content. For NFATp analysis nuclear extracts were prepared with a NE-PER Nuclear and Cytoplasmic Extraction reagent (Pierce, Rockford, Ill.) according to the manufacturer's protocol. Sample buffer was then added and, after boiling, the samples, containing equal amounts of proteins, were separated on 10% SDS-PAGE gel and transferred to nitrocellulose membranes. The membranes were blocked with TBST buffer containing low-fat milk (5%), Tris pH 7.5 (20 mM), NaCl (135 mM) and Tween 20 (0.1%), and probed with the following mAb in the same buffer: anti-NF-κb (diluted 1:1000), anti-total (t) ERK (diluted 1:20,000), anti-NFATp (diluted 1:500), anti T-bet (diluted 1:1000), anti-GATA-3 (diluted 1:1000), anti-Lamin B (diluted 1:1000). Immunoreactive protein bands were visualized using labeled secondary antibodies and the enhanced ECL system.

ERK, Pyk2, AKT, MLC = test: Western blotting of T-cell lysates (phosphorylation) and cell morphology; type: cell-based, human
Procedure: Western blotting of T-cell lysates. T cells were incubated (24 hr, 37° C.) in starvation medium (RPMI medium without serum). Aliquots (5×10^6/sample) of the starved cells were preincubated (for various intervals) with different concentrations of HSP60 prior to exposure to SDF-1α (100 ng/ml, 10 min, 37° C., tissue culture conditions). These reactions were terminated by freezing the plates (−70° C., 10 min). The plates were thawed, and the cells solubilized by incubating (60 min, 4° C.) in lysis buffer [EDTA (0.5 mM), NaCL (150 mM), NaF (10 nM), Tris pH 7.5 (25 mM), Triton X-100 (1%), PMSF (200 pg/ml), and phosphatase inhibitor cocktail (1%)]. Lysates were cleared by centrifugation (30 min, 14×10^3 rpm, 4° C.), and the resulting supernatants analyzed for protein content. Sample buffer was added, the samples were boiled, and equal amounts of proteins were separated by 10% SDS-PAGE and transferred to nitrocellulose membranes. The membranes were blocked with TBST buffer [Tris pH 7.5 (20 mM), NaCl (135 mM) and Tween 20 (0.1%)] containing low-fat milk (5%), and probed with the following mAb in the same buffer: anti-phosphorylated (p) ERK (0.2 μg/ml), anti-total (t) ERK (diluted 1:20,000), anti-pPyk2 (1.5 μg/ml), anti-tPyk2 (0.2 μg/ml), anti-pAKT (diluted 1:1000), anti-tAKT (diluted 1:1000), anti-pMLC (diluted 1:250), and anti-tMLC (diluted 1:1000), anti-pSTAT3 (diluted 1:250), and anti-STAT3 (diluted 1:500). Immunoreactive protein bands were visualized using a horseradish peroxidase-conjugated goat anti-mouse Ab and the enhanced ECL system. Phosphorylation levels of the 3-5 independent experiments were estimated by densitometry, and an average percentage of phosphorylation±SD was calculated as OD of pERK/tERK, or pPyk2/tPyk2, or pAKT/tAKT, pMLC/tMLC, or pSTAT3/tSTAT3×100%.
Cell morphology. T cells (3×10^6 cells/ml) were seeded in flat-bottom, 24-well plates in 500 μl of RPMI on coverslips coated with FN (25 μg/ml). Some T cells were pretreated (1 hr, 37° C., in a 7.5% CO2 humidified atmosphere) with anti-TLRs mAb (20 μg/ml), and then with HSP60 (1 hr). After which, SDF-1α (200 ng/ml) was added, and the cells allowed to adhere (30 min, 37° C., in a 7.5% CO2 humidified atmosphere). The cells were then fixed in 3.7% paraformaldehyde and permeabilized (5 min, room temperature) with 0.5% TritonX-100. For actin visualization, cells were stained with rhodamine-labeled phalloidin (diluted 1/100), and examined with a laser-scanning confocal microscope (LSM510, Zeiss).

SOCS3 = SOCS3 expression in human T cells (immunoblot); type: cell-based
human T cells = test: Cytokine secretion of anti-CD3-activated purified human T cells
Procedure: Human T cells. T cells were purified from the peripheral blood of healthy human donors (Blood Bank; Tel-Hashomer, Israel). The whole blood was incubated (20 min, 22° C.) with RosetteSep™ human T-cell enrichment cocktail (StemCell Technologies, Vencouver, BC, Canada). The remaining unsedimented cells were then loaded onto Lymphocyte Separation Medium (ICN Biomedicals; Belgium), isolated by density centrifugation, and washed with PBS. The purified cells (>95% CD3^+ T cells) so obtained were cultured in RPMI containing antibiotics and 10% heat-inactivated FCS.
Cytokine secretion. T cells (2×10^6 cells per ml) were activated (1 hr, 37° C.) with the indicated concentrations of HSP60 in 24-well plates in RPMI containing 10% heat-inactivated FCS. The cells were then washed and re-plated at the same concentration on anti-CD3 mAb pre-coated 24-well plates (0.5 μg/ml; non tissue culture grade plates) in serum free medium containing 0.1% BSA at 4° C. for 24 hr. The supernatants were collected, and the cytokine content (TNF-α, IFN-γ, and IL-10) was determined by ELISA, using the appropriate mAb, according to the manufacturer's instructions.

NFATp = NFATp activation in T cells; type: cell-based, human
Procedure: as §1

CD4^+CD25^+ T cells = test: Co-culture of treated CD4+CD25+ T cells with CD4+CD25- T cells; type: cell-based, human
[1] = human T cells, SDF-1α 100 ng/ml, 10 min
[2] = CD4+CD25+ treated 1 ng/ml 2 hr, co-cultured with CD4+CD25- on anti-CD3, 24 hr

B1: HSP60: recombinant human heat shock protein 60 (StressGen Biotechnologies) (protein)
chain: AKDVKFGADARALMLQGVDLLADAVAVTMGPKGRTVIIEQSWGSPKVTKDGVTVAKSIDLKDKYKNIGAKLVQDVANNTNEEAGDGTTTATVLARSIAKEGFEKISKGANPVEIRRGVMLAVDAVIAELKKQSKPVTTPEEIAQVATISANGDKEIGNIISDAMKKVGRKGVITVKDGKTLNDELEIIEGMKFDRGYISPYFINTSKGQKCEFQDAYVLLSEKKISSIQSIVPALEIANAHRKPLVIIAEDVDGEALSTLVLNRLKVGLQVVAVKAPGFGDNRKNQLKDMAIATGGAVFGEEGLTLNLEDVQPHDLGKVGEVIVTKDDAMLLKGKGDKAQIEKRIQEIIEQLDVTTSEYEKEKLNERLAKLSDGVAVLKVGGTSDVEVNEKKDRVTDALNATRAAVEEGIVLGGGCALLRCIPALDSLTPANEDQKIGIEIIKRTLKIPAMTIAKNAGVEGSLIVEKIMQSSSEVGYDAMAGDFVNMVEKGIIDPTKVVRTALLDAAGVASLLTTAEVVVTEIPKEEKDPGMGAMGGMGGGMGGGMF
- time at which NF-κB inhibition was apparent (NF-κB; 1 ng/ml): 60 min
- time of peak NF-κB inhibition (NF-κB; 1 ng/ml): 120 to 240 min
- nuclear translocation of NF-κB without anti-CD3 (NF-κB; HSP60 alone): did not affect the nuclear translocation of NF-κB
- concentrations of maximal effects on NF-κB (NF-κB; P<0.01): 1 ng/ml or 1 μg/ml
- SDF-1α-induced polarized morphology (ERK, Pyk2, AKT, MLC; FN-coated coverslips, HSP60 1 μg/ml): inhibits
- SDF-1α-induced phosphorylation of MLC (ERK, Pyk2, AKT, MLC; HSP60 1 hr then SDF-1α 100 ng/ml, 10 min): inhibits SDF-1α-induced phosphorylation of MLC
- phosphorylation of MLC (ERK, Pyk2, AKT, MLC; HSP60 1 hr, no SDF-1α): induces phosphorylation of MLC
- SDF-1α-induced AKT phosphorylation (ERK, Pyk2, AKT, MLC; [1]): inhibits
- SDF-1α-induced ERK phosphorylation (ERK, Pyk2, AKT, MLC; [1]): inhibits
- SDF-1α-induced Pyk2 phosphorylation (ERK, Pyk2, AKT, MLC; [1]): inhibits
- time at which SOCS3 activation was apparent (SOCS3; 1 ng/ml): 30 min
- time of peak SOCS3 activation (SOCS3; 1 ng/ml): 1 to 2 h
- HSP60 concentrations of maximal SOCS3 activation (SOCS3; biphasic dose-response curve): 1 ng/mL and 1000 ng/mL
- expression of SOCS3 (SOCS3; human T cells, 1 hr, 0-1000 ng/ml): activated the expression of SOCS3 (P<0.05)
- effect on cytokine secretion at doses in the order of 10 ng/ml (human T cells): did not appear to affect cytokine secretion
- secretion of IL-4 and IL-13 (human T cells): increases the secretion
- cytokine secretion without anti-CD3 (human T cells; HSP60 alone): did not induce cytokine secretion from the T cells
- higher concentrations at which cytokine secretion was again affected (human T cells; P<0.05): 0.1 to 1 µg/mL
- low concentrations with significant effects on cytokine secretion (human T cells; P<0.05): 0.1 to 1.0 ng/mL
- time at which NFATp inhibition was apparent (NFATp; 1 ng/ml): 60 min
- time of peak NFATp inhibition (NFATp; 1 ng/ml): 120 to 240 min
- anti-CD3-induced activation and de-phosphorylation of NFATp (NFATp; 1 ng/ml pre-treatment): significant down-regulation of their activation and de-phosphorylation of NFATp
- NFATp phosphorylation in the absence of anti-CD3 (NFATp; HSP60 alone): did not affect NFATp phosphorylation
- anti-CD3-induced proliferation of CD4+CD25- T cells in co-culture (CD4^+CD25^+ T cells; 24 hours): did not suppress anti-CD3-induced proliferation
- anti-CD3-induced proliferation of CD4+CD25- T cells in co-culture (CD4^+CD25^+ T cells; 96 hours): significant inhibition of proliferation
- IFN-γ and TNF-α secretion in co-culture (CD4^+CD25^+ T cells; [2]): significantly enhanced the down-regulation of secretion of IFN-γ and TNF-α secretion
- IL-10 and TGF-β secretion in co-culture (CD4^+CD25^+ T cells; [2]): up-regulated the secretion of IL-10 and TGF-β in the co-cultures
- inhibition of IFN-γ and TNF-α secretion of CD4+CD25- T cells by supernatants of treated Tregs (CD4^+CD25^+ T cells; HSP60 1 ng/ml, 2 hr, supernatants after 24 hr on anti-CD3): about 30%
